The source of these data is patent US20230052369A1 (Zymeworks, published 2023).

Assay [1] deals with T1, purified human monomeric 4-1BB (human, UniProt Q07011 24-186).
T1 construct: the assay used the 4-1BB part released by Factor Xa with the Fc removed; also called h4-1BB; human 4-1BB
The assay is described as follows: SPR, mean n=3.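 Further: antibodies captured on anti-human Fc chip, 4-1BB injected as five-point two-fold series from 40 nM by single-cycle kinetics at 25 °C, sensorgrams fitted to 1:1 Langmuir model.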
Description: The anti-human Fc surface was prepared on a CMS Series S sensorchip by standard amine coupling methods as described by the manufacturer (GE Healthcare). Briefly, immediately after EDC/NHS activation, a 25 μg/mL solution of anti-human Fc in 10 mM NaOAc pH 4.5 was injected at a flow rate of 10 μL/min for 420 s until approximately 2000 resonance units (RUs) were immobilized on all four flow cells. The remaining active groups were quenched by a 420 s injection of 1M ethanolamine at 10 μL/min.
Antibodies for analysis were captured onto the anti-Fc surface by injecting 5 μg/mL solutions at a flow rate of 10 μL/min for 60 s. Using single-cycle kinetics, five concentrations of a two-fold dilution series of 4-1BB starting at 40 nM (for both supernatant and purified antibody runs) with a blank buffer control were sequentially injected at 40 μL/min for 180 s with a 600 s dissociation phase, resulting in a set of sensorgrams with a buffer blank reference. Experiments were performed at a constant temperature of 25° C. The anti-human Fc surfaces were regenerated to prepare for the next injection cycle by one pulse of 10 mM Glycine/HCl pH 1.5 for 120 s at 40 μL/min. Blank-subtracted sensorgrams were analyzed using Biacore™ T200 Evaluation Software v3.0. The blank-subtracted sensorgrams were then fit to the 1:1 Langmuir binding model.
Protein material post protein-A or SEC was assessed for binding to human 4-1BB.

Assay [2] concerns the target T2, human 4-1BB, full-length, expressed on cells (human, UniProt Q07011 24-255).
T2 construct: also called CD137; TNFRSF9
As to the kind of experiment: flow cytometry, Jurkat-4-1BB.
Description: Jurkat T cells engineered to stably express human 4-1BB were used to measure binding of antibodies to human 4-1BB. Antibodies were diluted in 5 μl FB (PBS 2% FCS) 1:3 from stock in wells of a 96 V-well plate, and cells added on top. The cells were then left on ice for 30 minutes for the antibodies to bind. The cells were then washed twice in FB, and then incubated in 50 μl FB containing 2 μg/ml goat anti-human Alexa647 antibody (Jackson Immunoresearch). The cells were then left on ice for a further 20 minutes, washed twice in FB, resuspended in 100 μl FB and analysed on a BD Fortessa™ X20. The subsequent data files were analysed using FlowJo™ and Prism 7 (GraphPad) using a four-parameter non-linear regression.

T2 sequence (Q07011 24-255): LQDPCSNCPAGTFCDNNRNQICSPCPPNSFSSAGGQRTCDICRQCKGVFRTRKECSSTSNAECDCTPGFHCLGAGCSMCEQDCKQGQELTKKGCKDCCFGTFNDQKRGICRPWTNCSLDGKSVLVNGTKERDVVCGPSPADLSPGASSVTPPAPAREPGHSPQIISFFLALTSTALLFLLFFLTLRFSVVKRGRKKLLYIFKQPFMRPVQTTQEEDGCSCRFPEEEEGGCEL
T1 sequence (Q07011 other isoform, or with tags, fused parts or gaps limits assumed): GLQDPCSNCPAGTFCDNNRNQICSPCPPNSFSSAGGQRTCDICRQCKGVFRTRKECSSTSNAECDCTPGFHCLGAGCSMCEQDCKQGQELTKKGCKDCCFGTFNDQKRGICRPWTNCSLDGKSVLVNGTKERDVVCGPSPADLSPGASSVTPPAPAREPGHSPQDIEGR

B1: v28726 (antibody, human IgG1, kappa, L234A L235A, V domains shown)
VH: EVQLVESGGGLIQPGGSLRLSCAVSGFSLTTYAISWVRQAPGKGLEWLGIIWPGGGTNYADSVKGRFTISKDNSKNTLYLQMNSLRAEDTAVYYCARGAGTWYFDVWGQGTLVTVSS
VL: DIQMTQSPSSLSASVGDRVTITCSASQGISNYLNWYQQKPGKTVKLLIYYTSSLHSGVPSRFSGSGSGTDYTLTISSLQPEDIATYYCQQYSKFPWTFGQGTKLEIKR
notes: also called humanized 1C8 H7L3
Take B1: the Kd in assay [1] came out at 763 nM.

B2: v28728 (antibody, human IgG1, kappa, L234A L235A, V domains shown)
VH: EVQLVESGGGLIQPGGSLRISCAVSGFSLTTYAISWVRQAPGKGLEWLGIIWPGGGTNYADSLKGRLTISKDNSKNTVYLQMNSLRTEDTAVYYCARGAGTWYFDVWGQGTLVTVSS
VL: DIQMTQSPSSLSASVGDRVTITCSASQGISNYLNWYQQKPGKAPKLLIYYTSSLHSGVPSRFSGSGSGTDYTLTISSLQPEDIATYYCQQYSKFPWTFGQGTKLEIKR
notes: also called humanized 1C8 H8L2
As to B2, the midpoint of the response in assay [2], the EC50, lay at 713 nM. In assay [1], the Kd worked out at 1420 nM.

B3: v28730 (antibody, human IgG1, kappa, L234A L235A, V domains shown)
VH: EVQLVESGGGLIQPGGSLRISCAVSGFSLTTYAISWVRQAPGKGLEWLGIIWPGGGTNYADSLKGRLTISKDNSKNTVYLQMNSLRTEDTAVYYCARGAGTWYFDVWGQGTLVTVSS
VL: DIQMTQSPSSLSASVGDRVTITCSASQGISNYLNWYQQKPGKTVKLLIYYTSSLHSGVPSRFSGSGSGTDYTLTISSLQPEDIATYYCQQYSKFPWTFGQGTKLEIKR
notes: also called humanized 1C8 H8L3
In assay [2], B3 had an EC50 of 88.7 nM. Besides, the affinity in assay [1], expressed as Kd, was 762 nM.

B4: v28727 (antibody, human IgG1, kappa, L234A L235A, V domains shown)
VH: EVQLVESGGGLIQPGGSLRISCAVSGFSLTTYAISWVRQAPGKGLEWLGIIWPGGGTNYADSLKGRLTISKDNSKNTVYLQMNSLRTEDTAVYYCARGAGTWYFDVWGQGTLVTVSS
VL: DIQMTQSPSSLSASVGDRVTITCSASQGISNYLNWYQQKPGKAPKLLIYYTSSLHSGVPSRFSGSGSGTDFTFTISSLQPEDIATYYCQQYSKFPWTFGQGTKVEIKR
notes: also called humanized 1C8 H8L1
The molecule B4 returned an EC50 in assay [2] of 24.2 nM. The same molecule yielded a Kd in assay [1] of 813 nM.

B5: v28688 (antibody, human IgG1, kappa, L234A L235A, V domains shown)
VH: EVQLVESGGGLVQPGGSLRLSCAASGFTFSEFGMHWVRQAPGKGLEWVAYISSGGSTIYYADSVKGRFTISRDNAKNSLYLQMNSLRAEDTAVYYCARDWVDYWGQGTLLTVSS
VL: EIVLTQSPATLSLSPGERATLSCKASENVGSYVSWYQQKPGQAPRLLIYGASNRYTGVPARFSGSGSGTDFTLTISSLEPEDFAVYYCGQSYSYPLTFGGGTKVEIKR
notes: also called humanized 1G1 H2L2
Regarding B5, in assay [2], the response was half-maximal at 0.36 nM (EC50). Further, the Kd in assay [1] came out at 69.2 nM.

B6: v28684 (antibody, human IgG1, kappa, L234A L235A, V domains shown)
VH: EVQLVESGGGLVQPGGSLRLSCAASGFTFSEFGMHWVRQAPGKGLEWVSYISSGGSTIYYADSVKGRFTISRDNAKNSLYLQMNSLRAEDTAVYYCARDWVDYWGQGTLVTVSS
VL: EIVLTQSPATLSLSPGERATLSCKASENVGSYVSWYQQKPGQAPRLLIYGASNRYTGVPARFSGSGSGTDFTLTISSLEPEDFAVYYCGQSYSYPLTFGGGTKVEIKR
notes: also called humanized 1G1 H1L2
In assay [2], B6 gave an EC50 of 0.247 nM. Further, binding in assay [1] was characterised by a dissociation constant (Kd) of 38.5 nM.

B7: v28693 (antibody, human IgG1, kappa, L234A L235A, V domains shown)
VH: EVQLVESGGGLVQPGGSLRLSCAASGFTFSEFGMHWVRQAPGKGLEWVAYISSGGSTIYYADSVKGRFTISRDNAKNSLYLQMNSLRAEDTAMYYCARDWVDYWGQGTLLTVSS
VL: EIVMTQSPATLSLSPGERVTLSCKASENVGSYVSWYQQKPGQAPRLLIYGASNRYTGVPARFSGSGSGTDFTLTISSVEPEDFAVYYCGQSYSYPLTFGGGTKLELKR
notes: also called humanized 1G1 H3L3
In turn, B7 gave an EC50 in assay [2] of 0.353 nM. In assay [1], this molecule returned a Kd of 36.2 nM.

B8: v28689 (antibody, human IgG1, kappa, L234A L235A, V domains shown)
VH: EVQLVESGGGLVQPGGSLRLSCAASGFTFSEFGMHWVRQAPGKGLEWVAYISSGGSTIYYADSVKGRFTISRDNAKNSLYLQMNSLRAEDTAVYYCARDWVDYWGQGTLLTVSS
VL: EIVMTQSPATLSLSPGERVTLSCKASENVGSYVSWYQQKPGQAPRLLIYGASNRYTGVPARFSGSGSGTDFTLTISSVEPEDFAVYYCGQSYSYPLTFGGGTKLELKR
notes: also called humanized 1G1 H2L3
Turning to B8, the EC50 in assay [2] came to 0.486 nM. The molecule also yielded a Kd in assay [1] of 58.3 nM.

B9: v28687 (antibody, human IgG1, kappa, L234A L235A, V domains shown)
VH: EVQLVESGGGLVQPGGSLRLSCAASGFTFSEFGMHWVRQAPGKGLEWVAYISSGGSTIYYADSVKGRFTISRDNAKNSLYLQMNSLRAEDTAVYYCARDWVDYWGQGTLLTVSS
VL: EIVLTQSPATLSLSPGERATLSCKASENVGSYVSWYQQKPGQAPRLLIYGASNRYTGIPARFSGSGSGTDFTLTISSLEPEDFAVYYCGQSYSYPLTFGGGTKVEIKR
notes: also called humanized 1G1 H2L1
Turning to B9, in assay [2], a half-maximal effect (EC50) was put at 1 nM. Binding in assay [1] was put at a Kd of 40.3 nM.

B10: v28683 (antibody, human IgG1, kappa, L234A L235A, V domains shown)
VH: EVQLVESGGGLVQPGGSLRLSCAASGFTFSEFGMHWVRQAPGKGLEWVSYISSGGSTIYYADSVKGRFTISRDNAKNSLYLQMNSLRAEDTAVYYCARDWVDYWGQGTLVTVSS
VL: EIVLTQSPATLSLSPGERATLSCKASENVGSYVSWYQQKPGQAPRLLIYGASNRYTGIPARFSGSGSGTDFTLTISSLEPEDFAVYYCGQSYSYPLTFGGGTKVEIKR
notes: also called humanized 1G1 H1L1
In assay [2], B10 registered an EC50 of 0.223 nM. Besides, the Kd in assay [1] was 42.3 nM.

B11: v28686 (antibody, human IgG1, kappa, L234A L235A, V domains shown)
VH: EVQLVESGGGLVQPGGSLRLSCAASGFTFSEFGMHWVRQAPGKGLEWVSYISSGGSTIYYADSVKGRFTISRDNAKNSLYLQMNSLRAEDTAVYYCARDWVDYWGQGTLVTVSS
VL: EIVMTQSPATLSLSPGERVTLSCKASENVGSYVSWYQQKPGQAPRLLIYGASNRYTGVPARFSGSGSGTDFTLTISSVEPEDLAVYYCGQSYSYPLTFGGGTKLELKR
notes: also called humanized 1G1 H1L4
Regarding B11, the Kd in assay [1] stood at 31.1 nM.

B12: v28690 (antibody, human IgG1, kappa, L234A L235A, V domains shown)
VH: EVQLVESGGGLVQPGGSLRLSCAASGFTFSEFGMHWVRQAPGKGLEWVAYISSGGSTIYYADSVKGRFTISRDNAKNSLYLQMNSLRAEDTAVYYCARDWVDYWGQGTLLTVSS
VL: EIVMTQSPATLSLSPGERVTLSCKASENVGSYVSWYQQKPGQAPRLLIYGASNRYTGVPARFSGSGSGTDFTLTISSVEPEDLAVYYCGQSYSYPLTFGGGTKLELKR
notes: also called humanized 1G1 H2L4
In the case of B12, in assay [2], the EC50 came out at 0.376 nM. This molecule also displayed a Kd in assay [1] of 34.4 nM.

B13: v28692 (antibody, human IgG1, kappa, L234A L235A, V domains shown)
VH: EVQLVESGGGLVQPGGSLRLSCAASGFTFSEFGMHWVRQAPGKGLEWVAYISSGGSTIYYADSVKGRFTISRDNAKNSLYLQMNSLRAEDTAMYYCARDWVDYWGQGTLLTVSS
VL: EIVLTQSPATLSLSPGERATLSCKASENVGSYVSWYQQKPGQAPRLLIYGASNRYTGVPARFSGSGSGTDFTLTISSLEPEDFAVYYCGQSYSYPLTFGGGTKVEIKR
notes: also called humanized 1G1 H3L2
Consider B13, for which the EC50 in assay [2] came out at 0.771 nM. Moreover, the affinity in assay [1], expressed as Kd, was 46.4 nM.

B14: v28691 (antibody, human IgG1, kappa, L234A L235A, V domains shown)
VH: EVQLVESGGGLVQPGGSLRLSCAASGFTFSEFGMHWVRQAPGKGLEWVAYISSGGSTIYYADSVKGRFTISRDNAKNSLYLQMNSLRAEDTAMYYCARDWVDYWGQGTLLTVSS
VL: EIVLTQSPATLSLSPGERATLSCKASENVGSYVSWYQQKPGQAPRLLIYGASNRYTGIPARFSGSGSGTDFTLTISSLEPEDFAVYYCGQSYSYPLTFGGGTKVEIKR
notes: also called humanized 1G1 H3L1
Take B14: the EC50 in assay [2] turned out to be 1.44 nM. In addition, the Kd in assay [1] came out at 54.2 nM.

B15: v28685 (antibody, human IgG1, kappa, L234A L235A, V domains shown)
VH: EVQLVESGGGLVQPGGSLRLSCAASGFTFSEFGMHWVRQAPGKGLEWVSYISSGGSTIYYADSVKGRFTISRDNAKNSLYLQMNSLRAEDTAVYYCARDWVDYWGQGTLVTVSS
VL: EIVMTQSPATLSLSPGERVTLSCKASENVGSYVSWYQQKPGQAPRLLIYGASNRYTGVPARFSGSGSGTDFTLTISSVEPEDFAVYYCGQSYSYPLTFGGGTKLELKR
notes: also called humanized 1G1 H1L3
In turn, B15 showed an EC50 in assay [2] of 0.0551 nM. In assay [1], this molecule came in with a Kd of 31.2 nM.

B16: v28694 (antibody, human IgG1, kappa, L234A L235A, V domains shown)
VH: EVQLVESGGGLVQPGGSLRLSCAASGFTFSEFGMHWVRQAPGKGLEWVAYISSGGSTIYYADSVKGRFTISRDNAKNSLYLQMNSLRAEDTAMYYCARDWVDYWGQGTLLTVSS
VL: EIVMTQSPATLSLSPGERVTLSCKASENVGSYVSWYQQKPGQAPRLLIYGASNRYTGVPARFSGSGSGTDFTLTISSVEPEDLAVYYCGQSYSYPLTFGGGTKLELKR
notes: also called humanized 1G1 H3L4
B16 registered an EC50 in assay [2] of 0.455 nM. The same molecule gave a Kd in assay [1] of 34.7 nM.

B17: v28705 (antibody, human IgG1, kappa, L234A L235A, V domains shown)
VH: QVQLQESGPGLVKPSETLSITCTVSGFSLISYGVHWVRQPPGKGLEWLGVIWSGGSTDYNPSLKSRVTISKDTSKNQVSFKLSSLTAADTAIYYCARNPLTATVMDYWGQGTLVTVSS
VL: DIQMTQSPSSLSASVGDRVTVTCRASQNVGTNVAWYQQKPGKAPKALIYSASYRDSGVPSRFSGSGSGTDFTLTISSVQPEDFATYYCQQYNSYPLTFGGGTKLEIKR
notes: also called humanized 5G8 H3L3
As for B17, the EC50 in assay [2] was found to be 3.32 nM. This molecule also returned a dissociation constant Kd in assay [1] of 195 nM.

B18: v28698 (antibody, human IgG1, kappa, L234A L235A, V domains shown)
VH: QVQLQESGPGLVKPSETLSLTCTVSGFSLISYGVHWIRQPPGKGLEWIGVIWSGGSTDYNPSLKSRVTISVDTSKNQFSLKLSSVTAADTAVYYCARNPLTATVMDYWGQGTLVTVSS
VL: DIQMTQSPSSLSASVGDRVTVTCRASQNVGTNVAWYQQKPGKAPKALIYSASYRDSGVPSRFSGSGSGTDFTLTISSVQPEDLATYYCQQYNSYPLTFGGGTKLEIKR
notes: also called humanized 5G8 H1L4
In assay [2], B18 gave an EC50 of 38.3 nM. Besides, in assay [1], the affinity, expressed as Kd, was 1110 nM.

B19: v28697 (antibody, human IgG1, kappa, L234A L235A, V domains shown)
VH: QVQLQESGPGLVKPSETLSLTCTVSGFSLISYGVHWIRQPPGKGLEWIGVIWSGGSTDYNPSLKSRVTISVDTSKNQFSLKLSSVTAADTAVYYCARNPLTATVMDYWGQGTLVTVSS
VL: DIQMTQSPSSLSASVGDRVTVTCRASQNVGTNVAWYQQKPGKAPKALIYSASYRDSGVPSRFSGSGSGTDFTLTISSVQPEDFATYYCQQYNSYPLTFGGGTKLEIKR
notes: also called humanized 5G8 H1L3
In the case of B19, the Kd in assay [1] was found to be 735 nM.

B20: v28696 (antibody, human IgG1, kappa, L234A L235A, V domains shown)
VH: QVQLQESGPGLVKPSETLSLTCTVSGFSLISYGVHWIRQPPGKGLEWIGVIWSGGSTDYNPSLKSRVTISVDTSKNQFSLKLSSVTAADTAVYYCARNPLTATVMDYWGQGTLVTVSS
VL: DIQMTQSPSSLSASVGDRVTITCRASQNVGTNVAWYQQKPGKAPKALIYSASYRDSGVPSRFSGSGSGTDFTLTISSLQPEDFATYYCQQYNSYPLTFGGGTKVEIKR
notes: also called humanized 5G8 H1L2
In assay [1], B20 had a Kd of 574 nM.
